Experimental data taken from US20220401521A1 (NANJING HANXIN PHARMACEUTICAL TECHNOLOGY, published 2022).
No end group written: not given here.

How the values were obtained:
[1] = biological target: melanocortin receptor 2 (MC2R); experiment: cell-based or functional assay
[2] = biological target: melanocortin receptor 2 (MC2R); experiment: cell-based or functional assay; remark: listed apart in the source

Sequence of melanocortin receptor 2 (MC2R) (Q01718 whole entry): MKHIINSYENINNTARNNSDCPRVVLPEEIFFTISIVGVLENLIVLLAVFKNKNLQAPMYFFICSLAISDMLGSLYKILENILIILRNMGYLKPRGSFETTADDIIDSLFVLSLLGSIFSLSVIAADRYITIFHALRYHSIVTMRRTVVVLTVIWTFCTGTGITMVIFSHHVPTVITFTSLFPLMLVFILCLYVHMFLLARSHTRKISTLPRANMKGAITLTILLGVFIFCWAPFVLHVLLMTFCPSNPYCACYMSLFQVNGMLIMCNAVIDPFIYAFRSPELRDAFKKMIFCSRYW

SYSMEHFRWGKPVGKKRRPVKVYPNGAEDESAEAFPLEF (also: acetate salt) [high-purity ACTH (human sequence SEQ ID NO: 3, 99.88%)]
activity of high-purity ACTH relative to low-purity ACTH (calcium ion signal, MC2R cells) [1]: 1.6 fold | EC50(nM), calcium ion signal in CHO-K1 cells expressing MC2R [2]: 180 nM

SYSMEHFRWGKPVGKKRRPVKVYPNGAEDESAEAFPLEF [low-purity ACTH (human sequence SEQ ID NO: 3, 75.72%)]
EC50(nM), calcium ion signal in CHO-K1 cells expressing MC2R [2]: 288 nM
